Measured values reported in ChEMBL document CHEMBL1212772.

What was measured:
[1] = substrate: O=C(Cc1cccs1)N[C@@H]1C(=O)N2C(C(=O)[O-])=C(C[n+]3ccccc3)CS[C@H]12; experiment: (§1) Kcat/Km ratio of Pseudomonas aeruginosa OXA-10
[2] = substrate: CC1(C)S[C@@H]2[C@H](NC(=O)Cc3ccccc3)C(=O)N2[C@H]1C(=O)O; experiment: as §1
[3] = substrate: O=C(Cc1cccs1)N[C@@H]1C(=O)N2C(C(=O)[O-])=C(C[n+]3ccccc3)CS[C@H]12; experiment: (§2) Activity of Pseudomonas aeruginosa OXA-10
[4] = substrate: C[C@@H](O)[C@H]1C(=O)N2C(C(=O)O)=C(S[C@@H]3CN[C@H](CNS(N)(=O)=O)C3)[C@H](C)[C@H]12; experiment: as §2
[5] = substrate: C[C@@H](O)[C@H]1C(=O)N2C(C(=O)O)=C(SCCNC=N)C[C@H]12; experiment: as §2
[6] = substrate: CC(C)(O/N=C(\C(=O)N[C@@H]1C(=O)N2C(C(=O)[O-])=C(C[n+]3ccccc3)CS[C@H]12)c1csc(N)n1)C(=O)O; experiment: as §2
[7] = substrate: CC1(C)S[C@@H]2[C@H](NC(=O)Cc3ccccc3)C(=O)N2[C@H]1C(=O)O; experiment: as §2
[8] = substrate: C[C@@H](O)[C@H]1C(=O)N2C(C(=O)O)=C(S[C@@H]3CN[C@H](C(=O)N(C)C)C3)[C@H](C)[C@H]12; experiment: as §2
[9] = substrate: C[C@@H](O)[C@H]1C(=O)N2C(C(=O)O)=C(S[C@@H]3CN[C@H](CNS(N)(=O)=O)C3)[C@H](C)[C@H]12; experiment: (§3) Activity of Enterobacter cloacae AmpC
[10] = substrate: C[C@@H](O)[C@H]1C(=O)N2C(C(=O)O)=C(SCCNC=N)C[C@H]12; experiment: as §3
[11] = substrate: C[C@@H](O)[C@H]1C(=O)N2C(C(=O)O)=C(S[C@@H]3CN[C@H](C(=O)N(C)C)C3)[C@H](C)[C@H]12; experiment: as §3
[12] = substrate: C[C@@H](O)[C@H]1C(=O)N2C(C(=O)O)=C(S[C@@H]3CN[C@H](CNS(N)(=O)=O)C3)[C@H](C)[C@H]12; experiment: (§4) Kcat/Km ratio of Enterobacter cloacae AmpC
[13] = substrate: C[C@@H](O)[C@H]1C(=O)N2C(C(=O)O)=C(SCCNC=N)C[C@H]12; experiment: as §4
[14] = substrate: C[C@@H](O)[C@H]1C(=O)N2C(C(=O)O)=C(S[C@@H]3CN[C@H](C(=O)N(C)C)C3)[C@H](C)[C@H]12; experiment: as §4
[15] = substrate: C[C@@H](O)[C@H]1C(=O)N2C(C(=O)O)=C(S[C@@H]3CN[C@H](CNS(N)(=O)=O)C3)[C@H](C)[C@H]12; experiment: (§5) Kcat/Km ratio of Escherichia coli TEM-1
[16] = substrate: C[C@@H](O)[C@H]1C(=O)N2C(C(=O)O)=C(S[C@@H]3CN[C@H](C(=O)N(C)C)C3)[C@H](C)[C@H]12; experiment: as §5
[17] = substrate: C[C@@H](O)[C@H]1C(=O)N2C(C(=O)O)=C(S[C@@H]3CN[C@H](CNS(N)(=O)=O)C3)[C@H](C)[C@H]12; experiment: (§6) Activity of Escherichia coli TEM-1
[18] = substrate: C[C@@H](O)[C@H]1C(=O)N2C(C(=O)O)=C(S[C@@H]3CN[C@H](C(=O)N(C)C)C3)[C@H](C)[C@H]12; experiment: as §6
[19] = substrate: C[C@@H](O)[C@H]1C(=O)N2C(C(=O)O)=C(S[C@@H]3CN[C@H](CNS(N)(=O)=O)C3)[C@H](C)[C@H]12; experiment: (§7) Activity of Escherichia coli CTX-M-15
[20] = substrate: C[C@@H](O)[C@H]1C(=O)N2C(C(=O)O)=C(SCCNC=N)C[C@H]12; experiment: as §7
[21] = substrate: C[C@@H](O)[C@H]1C(=O)N2C(C(=O)O)=C(S[C@@H]3CN[C@H](C(=O)N(C)C)C3)[C@H](C)[C@H]12; experiment: as §7
[22] = substrate: C[C@@H](O)[C@H]1C(=O)N2C(C(=O)O)=C(S[C@@H]3CN[C@H](CNS(N)(=O)=O)C3)[C@H](C)[C@H]12; conditions: Escherichia coli
[23] = substrate: C[C@@H](O)[C@H]1C(=O)N2C(C(=O)O)=C(SCCNC=N)C[C@H]12; conditions: Escherichia coli
[24] = substrate: C[C@@H](O)[C@H]1C(=O)N2C(C(=O)O)=C(S[C@@H]3CN[C@H](C(=O)N(C)C)C3)[C@H](C)[C@H]12; conditions: Escherichia coli
[25] = substrate: O=C(Cc1cccs1)N[C@@H]1C(=O)N2C(C(=O)[O-])=C(C[n+]3ccccc3)CS[C@H]12; experiment: (§8) Activity of Klebsiella pneumoniae SHV-1
[26] = substrate: C[C@@H](O)[C@H]1C(=O)N2C(C(=O)O)=C(S[C@@H]3CN[C@H](CNS(N)(=O)=O)C3)[C@H](C)[C@H]12; experiment: as §8
[27] = substrate: C[C@@H](O)[C@H]1C(=O)N2C(C(=O)O)=C(SCCNC=N)C[C@H]12; experiment: as §8
[28] = substrate: CC1(C)S[C@@H]2[C@H](NC(=O)Cc3ccccc3)C(=O)N2[C@H]1C(=O)O; experiment: as §8
[29] = substrate: C[C@@H](O)[C@H]1C(=O)N2C(C(=O)O)=C(S[C@@H]3CN[C@H](C(=O)N(C)C)C3)[C@H](C)[C@H]12; experiment: as §8
[30] = substrate: O=C(Cc1cccs1)N[C@@H]1C(=O)N2C(C(=O)[O-])=C(C[n+]3ccccc3)CS[C@H]12; experiment: (§9) Kcat/Km ratio of Klebsiella pneumoniae SHV-1
[31] = substrate: C[C@@H](O)[C@H]1C(=O)N2C(C(=O)O)=C(S[C@@H]3CN[C@H](CNS(N)(=O)=O)C3)[C@H](C)[C@H]12; experiment: as §9
[32] = substrate: C[C@@H](O)[C@H]1C(=O)N2C(C(=O)O)=C(SCCNC=N)C[C@H]12; experiment: as §9
[33] = substrate: CC1(C)S[C@@H]2[C@H](NC(=O)Cc3ccccc3)C(=O)N2[C@H]1C(=O)O; experiment: as §9
[34] = substrate: C[C@@H](O)[C@H]1C(=O)N2C(C(=O)O)=C(S[C@@H]3CN[C@H](C(=O)N(C)C)C3)[C@H](C)[C@H]12; experiment: as §9

B1: Beta-lactamase OXA-10 (Pseudomonas aeruginosa), P14489 (protein)
chain: MKTFAAYVIIACLSSTALAGSITENTSWNKEFSAEAVNGVFVLCKSSSKSCATNDLARASKEYLPASTFKIPNAIIGLETGVIKNEHQVFKWDGKPRAMKQWERDLTLRGAIQVSAVPVFQQIAREVGEVRMQKYLKKFSYGNQNISGGIDKFWLEGQLRISAVNQVEFLESLYLNKLSASKENQLIVKEALVTEAAPEYLVHSKTGFSGVGTESNPGVAWWVGWVEKETEVYFFAFNMDIDNESKLPLRKSIPTKIMESEGIIGG
- kcat/Km [1]: 0.08 s⁻¹ µM⁻¹
- kcat/Km [2]: 11 s⁻¹ µM⁻¹
- Km [3]: 200 µM
- kcat [3]: 16 s⁻¹
- kcat [4]: < 0.0073 s⁻¹
- kcat [5]: < 0.014 s⁻¹
- kcat [6]: < 0.0095 s⁻¹
- Km [7]: 7.9 µM
- kcat [7]: 86 s⁻¹
- kcat [8]: < 0.005 s⁻¹

B2: Beta-lactamase (Enterobacter cloacae), P05364 (protein)
chain: MMRKSLCCALLLGISCSALATPVSEKQLAEVVANTITPLMKAQSVPGMAVAVIYQGKPHYYTFGKADIAANKPVTPQTLFELGSISKTFTGVLGGDAIARGEISLDDAVTRYWPQLTGKQWQGIRMLDLATYTAGGLPLQVPDEVTDNASLLRFYQNWQPQWKPGTTRLYANASIGLFGALAVKPSGMPYEQAMTTRVLKPLKLDHTWINVPKAEEAHYAWGYRDGKAVRVSPGMLDAQAYGVKTNVQDMANWVMANMAPENVADASLKQGIALAQSRYWRIGSMYQGLGWEMLNWPVEANTVVEGSDSKVALAPLPVAEVNPPAPPVKASWVHKTGSTGGFGSYVAFIPEKQIGIVMLANTSYPNPARVEAAYHILEALQ
- Km [9]: 9.6 µM
- kcat [9]: 0.00043 s⁻¹
- Km [10]: 24 µM
- kcat [10]: 0.012 s⁻¹
- Km [11]: 9.8 µM
- kcat [11]: 0.00031 s⁻¹
- kcat/Km [12]: 4.5e-05 s⁻¹ µM⁻¹
- kcat/Km [13]: 0.0005 s⁻¹ µM⁻¹
- kcat/Km [14]: 3.2e-05 s⁻¹ µM⁻¹

B3: Beta-lactamase TEM (Escherichia coli), P62593 (protein)
chain: MSIQHFRVALIPFFAAFCLPVFAHPETLVKVKDAEDQLGARVGYIELDLNSGKILESFRPEERFPMMSTFKVLLCGAVLSRVDAGQEQLGRRIHYSQNDLVEYSPVTEKHLTDGMTVRELCSAAITMSDNTAANLLLTTIGGPKELTAFLHNMGDHVTRLDRWEPELNEAIPNDERDTTMPAAMATTLRKLLTGELLTLASRQQLIDWMEADKVAGPLLRSALPAGWFIADKSGAGERGSRGIIAALGPDGKPSRIVVIYTTGSQATMDERNRQIAEIGASLIKHW
- kcat/Km [15]: 3.9e-05 s⁻¹ µM⁻¹
- kcat/Km [16]: 1.5e-05 s⁻¹ µM⁻¹
- Km [17]: 5.4 µM
- kcat [17]: 0.00021 s⁻¹
- Km [18]: 15 µM
- kcat [18]: 0.00023 s⁻¹

B4: Beta-lactamase CTX-M (Escherichia coli), Q9EXV5 (protein)
chain: MVKKSLRQFTLMATATVTLLLGSVPLYAQTADVQQKLAELERQSGGRLGVALINTADNSQILYRADERFAMCSTSKVMAAAAVLKKSESEPNLLNQRVEIKKSDLVNYNPIAEKHVNGTMSLAELSAAALQYSDNVAMNKLIAHVGGPASVTAFARQLGDETFRLDRTEPTLNTAIPGDPRDTTSPRAMAQTLRNLTLGKALGDSQRAQLVTWMKGNTTGAASIQAGLPASWVVGDKTGSGGYGTTNDIAVIWPKDRAPLILVTYFTQPQPKAESRRDVLASAAKIVTDGL
- Km [19]: 7.1 µM
- kcat [19]: 0.0018 s⁻¹
- Km [20]: 120 µM
- kcat [20]: 0.17 s⁻¹
- Km [21]: 11 µM
- kcat [21]: 0.0042 s⁻¹
- kcat/Km [22]: 0.00025 s⁻¹ µM⁻¹
- kcat/Km [23]: 0.0014 s⁻¹ µM⁻¹
- kcat/Km [24]: 0.00038 s⁻¹ µM⁻¹

B5: Beta-lactamase SHV-1 (Klebsiella pneumoniae), P0AD64 (protein)
chain: MRYIRLCIISLLATLPLAVHASPQPLEQIKLSESQLSGRVGMIEMDLASGRTLTAWRADERFPMMSTFKVVLCGAVLARVDAGDEQLERKIHYRQQDLVDYSPVSEKHLADGMTVGELCAAAITMSDNSAANLLLATVGGPAGLTAFLRQIGDNVTRLDRWETELNEALPGDARDTTTPASMAATLRKLLTSQRLSARSQRQLLQWMVDDRVAGPLIRSVLPAGWFIADKTGAGERGARGIVALLGPNNKAERIVVIYLRDTPASMAERNQQIAGIGAALIEHWQR
- kcat [25]: 410 s⁻¹
- Km [26]: 4.3 µM
- kcat [26]: 0.003 s⁻¹
- Km [27]: 23 µM
- kcat [27]: 0.054 s⁻¹
- kcat [28]: 1100 s⁻¹
- Km [29]: 4.2 µM
- kcat [29]: 0.0017 s⁻¹
- kcat/Km [30]: 2.6 s⁻¹ µM⁻¹
- kcat/Km [31]: 0.0007 s⁻¹ µM⁻¹
- kcat/Km [32]: 0.0024 s⁻¹ µM⁻¹
- kcat/Km [33]: 69 s⁻¹ µM⁻¹
- kcat/Km [34]: 0.0004 s⁻¹ µM⁻¹
